Reference: paper PMC11653614
Where “and” joins values, the source holds several entries; their conditions need not be identical. Identical values can stand only once.

Target: Pyruvate kinase M2 (mouse (endogenous in mouse skin)) (UniProt P52480)
Assay: not stated; detection of dimeric and tetrameric PKM2 protein levels in the skin from sham and skin flap mice on postoperative day 7

Chain of Pyruvate kinase M2, P52480 1-531 (enzyme; other documents disagree on this pair) (P52480 whole entry): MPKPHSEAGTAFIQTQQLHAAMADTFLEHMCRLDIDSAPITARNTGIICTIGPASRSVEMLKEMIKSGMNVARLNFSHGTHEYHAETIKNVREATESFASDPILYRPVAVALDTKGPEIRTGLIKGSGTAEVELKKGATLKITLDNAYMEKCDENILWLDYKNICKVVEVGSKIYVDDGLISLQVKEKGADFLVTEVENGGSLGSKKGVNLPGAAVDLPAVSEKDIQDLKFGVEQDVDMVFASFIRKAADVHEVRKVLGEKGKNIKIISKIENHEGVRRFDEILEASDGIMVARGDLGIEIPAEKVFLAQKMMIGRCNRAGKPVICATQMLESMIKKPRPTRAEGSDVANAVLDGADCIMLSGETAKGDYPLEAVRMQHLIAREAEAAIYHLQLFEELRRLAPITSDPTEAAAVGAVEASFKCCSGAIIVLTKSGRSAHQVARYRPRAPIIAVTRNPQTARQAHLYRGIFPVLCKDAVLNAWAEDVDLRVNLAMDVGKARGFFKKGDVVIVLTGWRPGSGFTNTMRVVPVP

Substance: Pyruvate kinase M2, P52480 1-531 (enzyme; other documents disagree on this pair)
- stoichiometry N: 4 and 2
